Measured values: the nanobody polyreactivity screen of Harvey et al. (2022)

Test: yeast display, Sf9 membrane polyspecificity reagent, FACS + sequencing; frameworks hold sequencing errors
Procedure, shortened: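 Nanobodies from a synthetic yeast display library (Saccharomyces cerevisiae BJ5465), induced 36–48 hours with galactose, were stained 1 hour at 4 °C with 10% biotinylated, detergent-solubilized Sf9 membrane reagent, enriched on streptavidin microbeads, then FACS-sorted. Anti-HA (expression) and streptavidin (reagent binding) fluorescence set low and high (top ~1%) gates. Polyreactivity labels come from the gate of origin. Genes were colony-PCR amplified, MiSeq 2 × 250 sequenced and filtered by CDR length.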

Sequence	polyreactivity (PSR sort gate)
QVQLVESGGGLVQAGGSLRLSCAASGRTFYYNAMGWYRQAPGKERELVARITSSGGSTYYADSVKGRFTISRDNAKNTVYLQMNSLKPEDTAVYYCAAGRSRYLWFGRDFDYWGQGTQVTVSS	low polyreactivity
QVQLVESGGGLVQAGGSLRLSCAASGSIFVYYTMGWYRQAPGKERELVAAISISGTSTYYADSVKGRFTISRDNAKNTVYLQMNSLKPEDTAVYYCAADTYYGEDYWGQGTQVTVSS	low polyreactivity
QVQLVESGGGLVQAGGSLRLSCAASGFTFRAYAMGWYRQAPGKERELVAAITYSGDRTYYADSVKGRFTISRDNAKNTVYLQMNSLKPEDTAVYYCAAYGAKVNRPGYYYWGQGTQVTVSS	high polyreactivity
QVQLVESGGGLVQAGGSLRLSCAASGFIFVSNAMGWYRQAPGKERELVATITNGDRTYYADSVKGRFTISRDNAKNTVYLQMNSLKPEDTGVYYCNADDQVGSIWKWYGKYEYRGQGTQVTVSS	low polyreactivity
QVQLVESGGGLVQAGGSIRLSCAASGSTISHNAMGWYRQAPGKERELVAAITRGDSTNYADSVKGRFTNTRDNAKNTVYLEMNSLKPEDTAVYYCNANKWYRYDYWGQGTQVTVSS	low polyreactivity
QVQLVESGGGLVQAGGSLRLSCAASGIILGLNVMGWYRQAPGKERELVATITRRGGSTFYADSVKGRFTISRDNAKNTVYLQMNSLKPEDTAVYYCNAEQWIWHHLTVQGFDYWGQGTQVTVSS	high polyreactivity
QVQLVESGGRLVQAGGSLRLSCAASGLIFVHYAMGWYRQSPGKERELVAAISAGGGSTYYADSVKGRFTISRDNAKNTVYLQMNSLKPEDTAVYYCNARVVNYVRPRTGAREYDFWGQGTQVTVSS	high polyreactivity
QVQLVESGGGLVQAGGSLRLSCASSGFTFDPYAMGWYRQAPGKERELVAAISWSGGSTYYADSVKGRFTISRDNAKNTVYLQMNSLKPEDTAVYYCAAEWYNSAYYEYDYWGQGTQVTVSS	high polyreactivity
QVQLVESGGGLFQAGGSLRLSCAASGSIFGKYTMGWYRQAPGKERELVAGITYRAGSTYYADSVKGRFTISRDNAKNTVYLQMNSLKPEDTAVYYCAARFYFRWYYYGSYANYWGQGTQVTVSS	high polyreactivity
QVQLVDSGGGLVQAGGSLRLSCDASGSTFKWYAMGWYRQAPGKERELVAAISWTGASTYYADSVKGRFTISRDNGKNTVYLQMNSLKPEDTAVYYCAADRTYYAMLWTGRSRYDYWGQGTQVTVSS	high polyreactivity
QVQLVESGGGLVQAGGSLRLSCAASGFTFVPYAMGWYRQAPGKERELVAAISSRGDSTYYADSVKGRFTISRDNAKNTVYLQMNSLKPEDTAVYYCNARTTPHMDYWGQGTQVTVSS	low polyreactivity
QVQLLESGGGLVQAGGSLRLSCAASGSIFGLYAMGWYRQAPGKERELVAAISPRGGSTYYADSVKGRFTISRDNAKNTVYLQMNSLKPEDTAVYYCNRDYIRYALGHDYWGQGTQVTVSS	high polyreactivity
QVQLVESGGGLVQAGGSLRLSCAASGSITYLYAMGSYRQAPGKERELLASITWSGGSTYYADSVKGRFTISRDNAKNTVYLQMNSLKPEDTAVYDCAALYQPFPWTWDGYYWGQGTQVTVSS	low polyreactivity
QVQLVESGGGLVQAGRSHRLSCAASGSTYANTMGWYIQAPGKERELDAAITYTGGSTYYADSVKGRFTISRDNAKNTVYLQMNSLKPEDTAVYYCAADAQAPPGGFKEYDYWGQGTQVTVSS	low polyreactivity
QVQLVESGGGLVQAGGSLRLSCAASGSTFVINAMGWYRQAPGKERELVAAISYSGDSTYADSVKGRFTISRDNEKNTVYLQMNSLKPEDTAVYYCAKYQYDYYTYDYWGQGTQVTVSS	low polyreactivity
QVQLVESGGGLVQAGGSLRLSCAASGSIFAVYAMRCYRQAPAKARELVATITGIDTGTYYADSVKGRCTISRDIAKNTVYLHMNILKPEDTAVYYCAAVCRYRHLRFYYWGQGTQGTVSS	high polyreactivity
QVQLVESGGGLVQAGGSLRLSCAASGRTLVKNAMGWYRQAPGKERELVAAISTSGGRTYYADSVKGRFTISRDNAKNTVYLQMNSLKPEDTAVYYCAAVLYATRPVYGFDSWGQGTQVTVSS	high polyreactivity
QVQLVESGGGLVQAGGSLRLSCAASGSTFGYNAMGWYRQAPGKERELVAAISYSGGSTSYADSVKGRFTISRDNAKNTVYLQMNSLKPEDTAVYYCAADEGTGQASLSSNLYDYWGQGTQVTVSS	low polyreactivity
QVQLVESGGGLVQAGGSLRLSCAASGIIFYLYVMGWYRQAPGKERELVAVISYSGDDTYYADSVKVRFTISRDNAKNTVYLQMNSLKPEDTAVYYCAADSIGYGFDYWGQGTQVTVSS	low polyreactivity
QVQLVESGGGLVQAGGSLRLSCAASGRIFFGYAMGWYRLAPGKERELVAAISYGGGRTYYADSVKGRFTISRDNAKNTVSLQMNSLKPEDTAVDYCNKRVTGGSWSPGHYRYNYWGQGSQVTVSS	high polyreactivity
QVQLVESGGGLVQAGGSLRLSCAASGSIYVYNAMGWYRQAPGKERELVAAIDTVGSTNYADSVKGRFTISRDNAKNTVYLQMNSLKPEDTAVYYCAVVTPYWSFYDQVIPSNYWGEGTQVTVSS	low polyreactivity
QVQLEESGGGLVQAGGSLRFSCAASGSIMTRNAMGWYRQPTGKEMELVAAITGSGGRTYYADSVKGRFSISRDNAKKTFFLQMTSLIPEDTAVYYCATRYGREDYWGQGTQVNVSS	high polyreactivity

Sequence	polyreactivity (PSR sort gate)
QVQLAESGGGLVQAGGSLRLSCAASGSTSAKNVMGWYRQPPGTERELVAAISRSGGRTYYADSVKGRFTISRDNAKNTVYLQMNSLKPVDTAVYYCYTRYVKGFYWGQGTLVTVSS	high polyreactivity
QVQLVESGGGLVQAGGSLRLSCAASGSIFRGYTMGWYRQAPGKERELFAAISTRGGSTYYADSVKGRFTISRDNAKNTVYLQMNSLKPEDTAVYYCNARSRGRASGYDYWGQGTQVTVSS	high polyreactivity
QVQLVESGGGLVQAGGSLRLSCAASGIIFHFNDMGWYRLAPGKERELVAAITSGGSTNYADSVKGRFTISRDNAKKTVYLQMNSLKPEDTADYYCAARRGLRLFAYRHGYWGQGTQVTVSS	low polyreactivity
QVQLVESGGGLVQAGGSLRLSCAASGRIFDRYVMGWYRQAPGKERELVAAISQSGGGTYYADSVKGRFTISRDNAKNTVYLQMNSLNPEDTAVYYCAARGTGYHGYGYWGQGSQVTVSS	high polyreactivity
QVQLVESGGGLVQPGGSLRLSCAASGRTYYINAMGWYRQAPGKERELVATISKSGGSTNYADSEKGRFTISRDNAMNTFYLQMNSLKPEDTAVYYCAADTSGGSWGRGRWKFGYWGQGTQVTVSS	high polyreactivity
QVQLQESGGGLLQAGGSLRLSCAASGTISTDSYMGWYRQAPGKERKFVATIGYGGITYYADSVKGRSTISRDSAKNTVYLQMNSLKPEDTEVYYCAVNSYYPDHYWYWGRGTQVTVSS	high polyreactivity
QVQLVESGGGLVQAGGSLRLSCAASGRTLRRYAMGWYRQAPGKERELVAGISRNGGSTYYADSVKGRFTISRDNAKNTVYLQMNSLKPDDTAVYYCNKVAYPYSILRYGYWGLGTQVTVSS	high polyreactivity
QVQLVESGGGLVQAGGSLRLSCAASGFIFVHNAMGWYRQAPGKERELVAAITSRGRTYYADSVKGRFTISRDNAKNTVYLQMNSLKPEDTAVYYCNAYWRGEYRYDSWGQGTQVTVSS	high polyreactivity
QVQLVESGGGLVQAGGSLRLSCAASGRILGWNAMGWYRQAPGKERELVAAISTSGTDTYYADSVKGRFTISSDNAKNTVYLQMNCLIPEDTAVYYCAADTVTIYWGLSVSYGCWGQGTQVTVSS	low polyreactivity
QGQLVESGGGLVQAGGSLRLSCAASGRIFPGNVMGWYRPAPGKERELVAAISSSGGSTYYADSVKGRFTISRDNAKNTVYLQMNSLKPEDTAVYYCAADSSDWPYDYWGQGTQVTVSS	low polyreactivity
QVQLVESGGGLVQAGGSLRLSCAASGRTFYSNAMGWYRQAAGKERELVAAISYNDGSTYYADSVKGRFTITRDNAKNTVYLQMNSLKPEDTAVYACNADVGAWAWYTRYDYWGQGTQVTVSS	low polyreactivity
QVQLVETGGGLVQAGGSLRLSCAASGRIFSPYALGWYRQAPGKERELVAAISYDDGITYYADSVKGRFTISRDNAKNTVYLQMNSLKPEDTAVYYCAADSVTRPAGDYWGQGTQVTVSS	low polyreactivity
QVQHVESGGRLVQAGGSLRLSCAASGFIFPNYAMGWYRQAPGKERELVAVISRSGGSTYYADSVKGRFTISRDNAKNTVYLQMNSLKPEDTAVYYCNAVARGYGYDYWGQGTQVTVSS	high polyreactivity
QVQLVESGGGLVQAGGSLRLSCAASGRTFAYHTMGWYRQAPGKERELVARINSGTSTYYADSVKGRFTISRDNEKNTVYLQMNSLKPEDTAVYYCAARGSESIRWYVGGRYGYWGQGTQVTVSS	low polyreactivity
QVQLEESGGGLVQAGGSLRLSCAASGRIFYGNSMGWYRQAPGKERELVAAISKRGGSTYYADSVKGRFTISRDNAKNTVYLQMNSLKPEDTAVYYCAASYPTRAWEYDYWGQGTQVTVAS	high polyreactivity
QVQLVESGGGLVQAGGSLRLSCAASGITFPRYAMGWYRQAPGKERELVARISWGGGRTYYADSVKGRFTISRDNAKNTVYLPMNSLKPEDTAVYYSAARTWADPYGYWGQGTQVTVSS	high polyreactivity
QVQLVESGGGLVQAGGSLRLSCAASGRTFNYYAMGWYRQAPGKERELVATITFSGDGSTYYAHSVKGRFTISRDNAKNTVYLHMNSLKPEDTAVYYCTADIEKSYNYWGQGTQVTVSS	low polyreactivity
QVQLVESGGGLVQAGGTLRLSCADSGLTFAKYAMGWYRQAPGKERQLVAAISRSGGSTYYADSVKGRFTISRDNAKNTVYLQINSLKPEDTARFYCPKSSGTLWITKYDYWGQGTQVTVSS	low polyreactivity
QVQLVESGAGLVQAGGSLRLSCAASGSTFPVYAMGWYRQAPGKEREFVAAITYSGARTYYADSVKGRFTISRDNAKNTVYLQMNSLKPEDTAVYYCNAVPYRYLLHGTRCPFSRGYDSWGQGTQVTVSS	high polyreactivity
QVQLVESGGGLVQAGGSLRLTSAASGSIFQPYAMGWYRQAPVKERELVASIRGSAGSTHYADSVKGRFTISRDNAKNTVYLQMNSLKPEDTAVYYCAARAVASHFSPRLYGYWGQGTQVTVSS	high polyreactivity
QVQLVESGGGVVQAGGSLRLSCAASGSNFDRNAMGWYRQAPGKERELVAAISRSGGSTNYADSVKGRFTISRDNAKNTFYLQMNSLKPEVTAVYYCAAVRTHWFGQGWAVYWFEYWGQGTQVTVSS	low polyreactivity
